Results taken from patent publication US20120123096 (published 2012).

How the values were obtained:
Assay in all cases: ELONA
Details in all cases: stem-loop (predicted)
[1] = target: Botulinum neurotoxin type B light chain (UniProt B1INP5 B1INP5:2-441)
[2] = target: Botulinum neurotoxin type B holotoxin (BoNT B HT) (UniProt B1INP5;B1INP5 B1INP5:2-441,B1INP5:442-1291)
[3] = target: Botulinum neurotoxin type A light chain (50 kDa zinc endopeptidase) (UniProt P0DPI1 P0DPI1:2-448)
[4] = target: Botulinum neurotoxin type A holotoxin (BoNT A HT) (UniProt P0DPI1;P0DPI1 P0DPI1:2-448,P0DPI1:449-1296)
Chain of Botulinum neurotoxin type A holotoxin (BoNT A HT) (P0DPI1 2-448, chain 1 of 2): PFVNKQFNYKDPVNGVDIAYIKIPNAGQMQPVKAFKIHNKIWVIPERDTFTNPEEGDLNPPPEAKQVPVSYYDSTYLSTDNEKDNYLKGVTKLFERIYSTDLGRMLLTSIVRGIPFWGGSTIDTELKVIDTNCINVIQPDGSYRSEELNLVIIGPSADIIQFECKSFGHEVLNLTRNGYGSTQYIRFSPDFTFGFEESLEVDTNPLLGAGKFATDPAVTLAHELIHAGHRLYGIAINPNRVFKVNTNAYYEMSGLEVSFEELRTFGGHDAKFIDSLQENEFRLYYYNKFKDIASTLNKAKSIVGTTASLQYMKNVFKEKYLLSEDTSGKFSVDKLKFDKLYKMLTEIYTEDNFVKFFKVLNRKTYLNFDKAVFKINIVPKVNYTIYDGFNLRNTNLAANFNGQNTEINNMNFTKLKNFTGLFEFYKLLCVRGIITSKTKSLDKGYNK
Chain of Botulinum neurotoxin type A holotoxin (BoNT A HT) (P0DPI1 449-1296, chain 2 of 2): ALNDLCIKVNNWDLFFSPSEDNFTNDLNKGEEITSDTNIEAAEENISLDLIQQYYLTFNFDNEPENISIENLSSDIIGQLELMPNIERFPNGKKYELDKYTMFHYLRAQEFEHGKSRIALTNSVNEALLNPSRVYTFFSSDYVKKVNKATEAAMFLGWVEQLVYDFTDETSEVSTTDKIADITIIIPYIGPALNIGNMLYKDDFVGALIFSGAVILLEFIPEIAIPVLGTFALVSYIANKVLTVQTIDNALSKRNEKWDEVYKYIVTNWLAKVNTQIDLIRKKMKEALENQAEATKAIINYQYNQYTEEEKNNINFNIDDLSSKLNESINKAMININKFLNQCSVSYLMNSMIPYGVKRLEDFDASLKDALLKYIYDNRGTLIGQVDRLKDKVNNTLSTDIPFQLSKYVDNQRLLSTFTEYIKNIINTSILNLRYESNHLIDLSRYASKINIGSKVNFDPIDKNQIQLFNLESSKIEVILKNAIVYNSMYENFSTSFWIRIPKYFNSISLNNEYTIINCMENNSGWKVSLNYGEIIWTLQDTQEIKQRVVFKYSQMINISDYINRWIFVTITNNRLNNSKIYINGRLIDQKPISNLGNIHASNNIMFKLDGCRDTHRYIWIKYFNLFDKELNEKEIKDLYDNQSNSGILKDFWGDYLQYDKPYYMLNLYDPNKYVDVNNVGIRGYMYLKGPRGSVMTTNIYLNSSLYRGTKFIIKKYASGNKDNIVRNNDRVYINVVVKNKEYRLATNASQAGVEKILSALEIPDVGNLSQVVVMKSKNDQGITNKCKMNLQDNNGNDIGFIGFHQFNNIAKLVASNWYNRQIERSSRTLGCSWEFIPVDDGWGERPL

Measured: binding result

Chain of Botulinum neurotoxin type B holotoxin (BoNT B HT) (B1INP5 2-441, chain 1 of 2): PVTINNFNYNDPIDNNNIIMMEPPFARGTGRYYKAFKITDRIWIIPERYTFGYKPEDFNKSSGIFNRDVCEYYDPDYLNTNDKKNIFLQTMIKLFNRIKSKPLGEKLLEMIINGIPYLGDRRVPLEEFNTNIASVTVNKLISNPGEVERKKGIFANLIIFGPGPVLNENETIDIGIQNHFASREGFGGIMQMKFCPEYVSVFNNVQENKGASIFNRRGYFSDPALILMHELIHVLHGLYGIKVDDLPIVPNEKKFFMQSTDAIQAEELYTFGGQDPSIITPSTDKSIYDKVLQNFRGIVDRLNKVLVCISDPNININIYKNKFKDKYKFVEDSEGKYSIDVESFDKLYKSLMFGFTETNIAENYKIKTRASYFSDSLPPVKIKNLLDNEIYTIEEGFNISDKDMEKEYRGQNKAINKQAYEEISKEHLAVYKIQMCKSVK
Chain of Botulinum neurotoxin type B holotoxin (BoNT B HT) (B1INP5 442-1291, chain 2 of 2): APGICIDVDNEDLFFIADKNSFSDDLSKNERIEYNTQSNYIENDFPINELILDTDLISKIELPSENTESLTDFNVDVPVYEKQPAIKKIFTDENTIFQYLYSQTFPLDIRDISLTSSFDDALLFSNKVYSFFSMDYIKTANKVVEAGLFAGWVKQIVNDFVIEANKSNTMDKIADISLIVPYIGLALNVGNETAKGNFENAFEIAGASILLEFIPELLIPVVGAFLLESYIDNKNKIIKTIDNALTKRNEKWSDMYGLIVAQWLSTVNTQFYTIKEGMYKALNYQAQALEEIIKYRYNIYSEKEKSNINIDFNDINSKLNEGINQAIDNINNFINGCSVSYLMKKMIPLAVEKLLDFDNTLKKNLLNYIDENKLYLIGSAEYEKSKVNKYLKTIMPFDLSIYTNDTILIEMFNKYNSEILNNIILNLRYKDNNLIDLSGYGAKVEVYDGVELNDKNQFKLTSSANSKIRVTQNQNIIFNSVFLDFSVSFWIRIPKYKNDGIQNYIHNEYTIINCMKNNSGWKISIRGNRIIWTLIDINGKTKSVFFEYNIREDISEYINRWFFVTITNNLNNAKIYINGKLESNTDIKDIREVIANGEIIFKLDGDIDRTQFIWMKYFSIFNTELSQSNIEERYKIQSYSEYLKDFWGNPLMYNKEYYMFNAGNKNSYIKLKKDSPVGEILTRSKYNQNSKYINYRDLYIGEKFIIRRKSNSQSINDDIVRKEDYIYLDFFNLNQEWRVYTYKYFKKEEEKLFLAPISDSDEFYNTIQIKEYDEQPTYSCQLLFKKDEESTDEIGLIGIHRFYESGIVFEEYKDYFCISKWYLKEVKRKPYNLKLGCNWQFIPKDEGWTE
Chain of Botulinum neurotoxin type B light chain (B1INP5 2-441, one chain of several): as the sequence (B1INP5 2-441, chain 1 of 2) above
Chain of Botulinum neurotoxin type A light chain (50 kDa zinc endopeptidase) (P0DPI1 2-448, one chain of several): as the sequence (P0DPI1 2-448, chain 1 of 2) above

B1: BoNT A/B LC aptamer (ssDNA)
DNA: CATCCGTCACACCTGCTCTGATCAGGGAAGACGCCAACACTGGTGTTGGCTCCCGTATCA
binds: [1] | [2] | [3] | [4]

B2: BoNT A/B HT aptamer (ssDNA)
DNA: CATCCGTCACACCTGCTCTGCTATCACATGCCTGCTGAAGTGGTGTTGGCTCCCGTATCA
binds: [1] | [2] | [3] | [4]
